B1: Nanobody IL6R65 (VHH)
VHH: EVQLVESGGGLVQPGGSLRLSCAASGSIFKVNAMGWYRQAPGKGRELVAGIISGGSTNYADSVKGRFTISRDNAKNTLYLQMNSLRPEDTAVYYCAFVTTNSDYDLGRDYWGQGTLVTVSS
notes: also called ILR65
B2: IL6R65PMP7G7 (VHH)
VHH: B1 VHH with S27T, I28T, V31I, A33I, G35A, I51V, S53T, S56N, N58T
notes: Also expressed in E. coli and purified via IMAC
B3: IL6R65PMP7G8 (VHH)
VHH: B1 VHH with I28T, K30R, V31I, A33V, G35A, I51V, S53N, G54D, N58T
notes: as for B2
B4: IL6R65PMP7D6 (VHH)
VHH: B1 VHH with K30R, A33V, G35A, G50A, I51V, S53N, S56T, N58T
notes: as for B2
B5: IL6R65PMP7C4 (VHH)
VHH: B1 VHH with S27T, I28T, K30R, V31I, A33V, G35A, S53T, G54N, N58S
notes: as for B2
B6: IL6R65PMP7F4 (VHH)
VHH: B1 VHH with S27T, I28T, A33V, G35A, S53N, N58T
notes: as for B2
B7: 32C9PMP2_A2 (VHH, name in Kabat numbering)
VHH: EVQLVESGGGLVQPGGSLRLSCAASGFTFSDYDIGWFRQAPGKGREGVSGISSSDGNTYYADSVKGRFTISRDNAKNTLYLQMNSLKAEDTAVYYCAAEPPDSSWYLDGSPEFFKYWGQGTQVTVSS
notes: Humanized 32C9 variant
B8: 32C9PMP2_D10 (VHH, name in Kabat numbering)
VHH: B7 VHH with F37V, G44E, R45L, R72S, L79V, K87R, A88P, Q122L
notes: Humanized 32C9 variant
B9: 32C9PMP2_B3 (VHH, name in Kabat numbering)
VHH: B7 VHH with P14A, G44E, L79V, Q122L
notes: Humanized 32C9 variant
B10: 32C9PMP2_G4 (VHH, name in Kabat numbering)
VHH: B7 VHH with P14A, S30D, F37V
notes: Humanized 32C9 variant
B11: 32C9PMP2_F12 (VHH, name in Kabat numbering)
VHH: B7 VHH with P14A, S30D, F37V, R72S, K87R, A88P, Q122L
notes: Humanized 32C9 variant
B12: Nanobody 32C9 (VHH)
VHH: B7 VHH with P14A, S30D, G44E, R72S, L79V, A88P
notes: Tested as periplasmic extract; also called 32C9 WT; IL6R04
B13: 32C9PMP2_C3 (VHH, name in Kabat numbering)
VHH: B7 VHH with P14A, F37V, G44E, G47W, R72S
notes: Humanized 32C9 variant
B14: P32C9PMP2_E12 (VHH, name in Kabat numbering)
VHH: B7 VHH with P14A, S30D, L79V, K87R, A88P, Q122L
notes: Humanized 32C9 variant
B15: 32C9PMP2_A12 (VHH, name in Kabat numbering)
VHH: B7 VHH with P14A, S30D, G44E, R45L, R72S, L79V
notes: Humanized 32C9 variant
B16: 32C9PMP2_B11 (VHH, name in Kabat numbering)
VHH: B7 VHH with P14A, S30D, F37V, G44E, G47W, R72S, K87R, A88P
notes: Humanized 32C9 variant
B17: 32C9PMP2_E1 (VHH, name in Kabat numbering)
VHH: B7 VHH with S30D, G44E, R45L, R72S, L79V, K87R, A88P
notes: Humanized 32C9 variant
B18: 32C9PMP2_F3 (VHH, name in Kabat numbering)
VHH: B7 VHH with P14A, S30D, F37V, R72S, L79V, Q122L
notes: Humanized 32C9 variant
B19: 32C9PMP2_E2 (VHH, name in Kabat numbering)
VHH: B7 VHH with G44E, R45L, R72S
notes: Humanized 32C9 variant
B20: 32C9PMP2_A7 (VHH, name in Kabat numbering)
VHH: B7 VHH with P14A, F37V, Q122L
notes: Humanized 32C9 variant
B21: 32C9PMP2_G12 (VHH, name in Kabat numbering)
VHH: B7 VHH with P14A
notes: Humanized 32C9 variant
B22: 32C9PMP2_B12 (VHH, name in Kabat numbering)
VHH: B7 VHH with G44E, G47W, R72S, L79V
notes: Humanized 32C9 variant
B23: 32C9PMP2_C6 (VHH, name in Kabat numbering)
VHH: B7 VHH with P14A, F37V, G47W, R72S, K87R, A88P
notes: Humanized 32C9 variant
B24: 32C9PMP2_B5 (VHH, name in Kabat numbering)
VHH: B7 VHH with P14A, F37V, R72S, L79V, K87R, A88P, Q122L
notes: Humanized 32C9 variant

Positions count from the first letter of the chain named.

The first test deals with T1, IL6R on the cell-surface of TF-1 cells (UniProt P08887 20-468, limits assumed).
T1 sequence (looked up): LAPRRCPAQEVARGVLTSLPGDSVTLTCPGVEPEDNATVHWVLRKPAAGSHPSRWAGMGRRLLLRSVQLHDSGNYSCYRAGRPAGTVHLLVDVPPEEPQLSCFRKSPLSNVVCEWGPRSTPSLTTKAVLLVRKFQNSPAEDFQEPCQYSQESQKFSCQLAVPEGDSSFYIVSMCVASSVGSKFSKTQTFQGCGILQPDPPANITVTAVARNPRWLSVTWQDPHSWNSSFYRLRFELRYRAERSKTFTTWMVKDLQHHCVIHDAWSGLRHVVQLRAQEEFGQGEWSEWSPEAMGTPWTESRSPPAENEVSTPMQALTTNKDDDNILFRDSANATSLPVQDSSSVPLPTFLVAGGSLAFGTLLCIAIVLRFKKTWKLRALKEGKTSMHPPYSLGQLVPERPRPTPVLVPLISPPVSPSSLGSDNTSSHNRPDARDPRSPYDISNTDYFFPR
Put plainly: cell-based or functional assay.
In the case of B1, the “Inhibition of IL6-dependent proliferation of TF-1 cells (3H-thymidine incorporation), IC50” value (“Inhibition” for short) is 55000 pM.

As to B2, the “Inhibition” value was found to be 3500 pM.

For B3, the “Inhibition” value was found to be 6200 pM.

As to B4, the “Inhibition” value is 3700 pM.

With B5, the “Inhibition” value was 2500 pM.

Consider B6, for which the “Inhibition” value stood at 5200 pM.

Another test deals with T2, human IL6R (human, UniProt P08887 20-358, limits assumed).
T2 construct: Antigen of the Biacore experiments
T2 sequence (looked up): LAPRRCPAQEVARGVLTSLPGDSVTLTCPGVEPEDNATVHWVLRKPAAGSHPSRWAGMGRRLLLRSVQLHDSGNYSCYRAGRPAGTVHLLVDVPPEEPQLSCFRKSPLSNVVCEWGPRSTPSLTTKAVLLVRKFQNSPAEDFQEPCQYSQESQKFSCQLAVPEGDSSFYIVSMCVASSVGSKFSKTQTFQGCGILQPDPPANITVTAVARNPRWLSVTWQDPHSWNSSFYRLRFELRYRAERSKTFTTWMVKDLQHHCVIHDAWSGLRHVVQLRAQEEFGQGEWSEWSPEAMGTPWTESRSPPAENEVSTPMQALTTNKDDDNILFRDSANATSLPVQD
As to the kind of experiment: SPR (Biacore), purified Nanobody. Here is the method:
Binding curves at different concentrations of purified Nanobody were recorded on Biacore and used to calculate values for ka, kd and Kd (Table B-4).
Background: Surface plasmon resonance follows binding to a sensor surface in real time, without labels.
As for B1, binding was put at a Kd of 4300 pM, the dissociation rate constant (koff) was 0.00234 s⁻¹ and the on-rate constant (kon) came out at 539000 M⁻¹ s⁻¹.

B2 came in with a Kd of 560 pM, a koff of 0.00031 s⁻¹ and an on-rate constant (kon) of 550000 M⁻¹ s⁻¹.

As to B3, the equilibrium dissociation constant (Kd) was 950 pM, the dissociation rate constant (koff) stood at 0.000333 s⁻¹ and the association rate constant (kon) turned out to be 352000 M⁻¹ s⁻¹.

For the molecule B4, the Kd worked out at 420 pM, the dissociation rate constant (koff) is 0.000279 s⁻¹ and the on-rate (kon) stood at 672000 M⁻¹ s⁻¹.

On to B5, for which the Kd was 340 pM, the “fold improvement of Kd relative to the parent molecule (IL6R65)” value stood at 13 fold, the koff worked out at 0.000177 s⁻¹ and the association rate constant (kon) amounted to 527000 M⁻¹ s⁻¹.

In turn, B6 showed a dissociation constant (Kd) of 480 pM, a koff of 0.000292 s⁻¹ and an association rate constant (kon) of 609000 M⁻¹ s⁻¹.

Another test has as its target T2, human IL6R. As to the kind of experiment: SPR (Biacore), periplasmic extract. The procedure: The oligos were dissolved in H₂O and subsequently pooled at a final concentration of 0.4 uM for each oligo. 5 and 1 ul of this mixture was used for assembly PCR in a 50 ul reaction volume. Full-length product was purified using the Qiagen PCR purification kit. The purified PCR product was then digested with SfiI and BsteEII and ligated into the corresponding sites of expression vector pAX51. E. coli TG1 cells were transformed with 2 ul of ligation mixture and plated on LB agar+100 ug/ml ampicillin+2% glucose. Plates were incubated overnight at 37° C. Individual colonies were picked and grown overnight in 2×YT+100 ug/ml ampicillin+2% glucose. Cloned Nanobody genes were amplified directly from these cultures with M13 forward and reverse primers. PCR products were purified and subsequently sequenced. In parallel the same panel of Nanobodies was expressed at 1 ml scale for 4 hours at 37° C. Periplasmic extracts were prepared and without further purification analyzed on Biacore for their ability to bind human IL6R.
As for B7, the koff was determined as 0.000192 s⁻¹.

The molecule B8 registered a koff of 0.00707 s⁻¹.

On to B9, for which the off-rate (koff) was 0.000308 s⁻¹.

Regarding B10, the off-rate (koff) was determined as 0.0007 s⁻¹.

In turn, B11 registered an off-rate (koff) of 0.000584 s⁻¹.

Molecule B12 returned a koff of 0.000162 s⁻¹.

The molecule B13 gave an off-rate (koff) of 0.0138 s⁻¹.

Turning to B14, the koff was 0.000247 s⁻¹.

B15 had an off-rate (koff) of 0.0029 s⁻¹.

B16 yielded a dissociation rate constant (koff) of 0.00768 s⁻¹.

B17 came in with a koff of 0.00166 s⁻¹.

In turn, B18 showed a koff of 0.000804 s⁻¹.

Regarding B19, the koff came out at 0.00121 s⁻¹.

B20 showed a koff of 0.000792 s⁻¹.

In turn, B21 displayed a koff of 0.000197 s⁻¹.

B22 showed a koff of 0.00564 s⁻¹.

As for B23, the dissociation rate constant (koff) is 0.00426 s⁻¹.

B24 had an off-rate (koff) of 0.000803 s⁻¹.

For the next test, the target named is T2, human IL6R. Put plainly: SPR (Biacore), periplasmic extract. This is another data set of the same source. Here is the method: Selection outputs were analyzed by picking individual colonies and growing them overnight in 1 ml 2×YT (Yeast Tryptone) medium+100 ug/ml Carbenicillin at 37 C. Nanobody containing periplasmic extracts were prepared, diluted 1/10 in PBS and subsequently tested for antigen binding in ELISA. Clones with the highest ELISA signals were sequenced and analyzed on Biacore. […] The off-rate of the best clone from the CDR3 library was 7×10e-4 s-1.
B2: the off-rate (koff) was found to be 0.00037 s⁻¹.

B3 had an off-rate constant (koff) of 0.00041 s⁻¹.

With B4, the koff is 0.00044 s⁻¹.

For B5, the off-rate constant (koff) was determined as 0.00043 s⁻¹.

B6 gave an off-rate constant (koff) of 0.00026 s⁻¹.

In the next test the target is soluble IL6R in cynomolgus monkey plasma (cynomolgus monkey, UniProt A0A2K5WN54 60-396). As to the kind of experiment: cyno plasma potency assay: competition ELISA, inhibition of human IL6 binding to soluble IL6R. (In an ELISA, binding on a coated surface is turned into a signal by an enzyme label.)
Sequence of soluble IL6R in cynomolgus monkey plasma (A0A2K5WN54 entry or part of it): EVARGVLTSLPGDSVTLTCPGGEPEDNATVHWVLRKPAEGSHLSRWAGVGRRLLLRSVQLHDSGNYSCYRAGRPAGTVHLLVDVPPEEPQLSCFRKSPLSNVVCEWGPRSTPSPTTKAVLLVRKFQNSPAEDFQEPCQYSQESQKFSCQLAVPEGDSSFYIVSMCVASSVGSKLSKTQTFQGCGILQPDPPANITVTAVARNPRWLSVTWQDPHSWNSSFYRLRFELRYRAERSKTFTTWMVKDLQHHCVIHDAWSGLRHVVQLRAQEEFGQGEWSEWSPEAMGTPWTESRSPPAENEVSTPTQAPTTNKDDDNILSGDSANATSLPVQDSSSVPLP
Regarding B1, the half-inhibitory concentration (IC50) was 2990 pM.

For B2, the IC50 was 110 pM.

In turn, B3 showed an IC50 of 140 pM.

Turning to B4, the half-inhibitory concentration (IC50) turned out to be 90 pM.

B5 registered an IC50 of 80 pM.

Take B6: the IC50 is 90 pM.

For a further test, the target named is T3, soluble IL6R in human plasma (human, UniProt P08887 20-355, limits assumed).
T3 sequence (looked up): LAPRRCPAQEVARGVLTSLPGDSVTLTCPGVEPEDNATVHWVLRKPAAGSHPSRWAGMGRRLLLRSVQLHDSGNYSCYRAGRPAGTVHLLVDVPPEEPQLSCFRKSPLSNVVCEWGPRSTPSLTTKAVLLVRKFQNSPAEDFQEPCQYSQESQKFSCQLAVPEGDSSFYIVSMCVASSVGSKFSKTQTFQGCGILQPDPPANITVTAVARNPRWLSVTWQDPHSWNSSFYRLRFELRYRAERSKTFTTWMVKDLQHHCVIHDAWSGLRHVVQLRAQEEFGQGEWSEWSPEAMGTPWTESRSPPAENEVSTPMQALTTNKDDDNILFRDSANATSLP
Put plainly: human plasma potency assay: competition ELISA, inhibition of human IL6 binding to soluble IL6R. Here is the method:
All 5 Nanobodies and the parent Nanobody were also tested in a plasma potency assay. In this assay different concentrations of Nanobody are mixed with soluble IL6R containing plasma from either human or cynomolgus monkey and a fixed concentration of human IL6. After 1 hour of incubation the mixture is transferred to a Maxisorp plate coated with the anti-IL6R MAb BN-12 (Diaclone). The amount of IL6 bound was determined by subsequent addition of biotinylated anti-IL6 polyclonal antibody (R&D Systems) and streptavidin-HRP. TMB was used as substrate. Substrate conversion was measured at 450 nm.
Take B1: the IC50 is 4930 pM.

Turning to B2, the IC50 came to 220 pM.

Consider B3, for which the IC50 was found to be 340 pM.

Consider B4, for which the IC50 is 190 pM.

Take B5: the IC50 was found to be 210 pM.

Regarding B6, the IC50 was 240 pM.

As a reminder, the Kd is the free concentration of one partner at which half of the binding sites on the other are occupied at equilibrium, for simple one-to-one binding. A word on the koff: it is the first-order rate constant of dissociation. The kon is the rate constant with which the complex forms. A word on the IC50: it is the concentration needed to halve the response being measured.
